Laboratory results taken from publication PMC5666606 (The EMBO Journal, 2017).

Assays:
RBPJ-(53-474) [1] = biological target: T1, RBPJ-(53-474) (mouse, UniProt P31266 53-474); test: ITC
RBPJ-(53-474) [2] = biological target: T1, RBPJ-(53-474); test: ITC; remark: listed apart in the source

T1 sequence (P31266 53-474): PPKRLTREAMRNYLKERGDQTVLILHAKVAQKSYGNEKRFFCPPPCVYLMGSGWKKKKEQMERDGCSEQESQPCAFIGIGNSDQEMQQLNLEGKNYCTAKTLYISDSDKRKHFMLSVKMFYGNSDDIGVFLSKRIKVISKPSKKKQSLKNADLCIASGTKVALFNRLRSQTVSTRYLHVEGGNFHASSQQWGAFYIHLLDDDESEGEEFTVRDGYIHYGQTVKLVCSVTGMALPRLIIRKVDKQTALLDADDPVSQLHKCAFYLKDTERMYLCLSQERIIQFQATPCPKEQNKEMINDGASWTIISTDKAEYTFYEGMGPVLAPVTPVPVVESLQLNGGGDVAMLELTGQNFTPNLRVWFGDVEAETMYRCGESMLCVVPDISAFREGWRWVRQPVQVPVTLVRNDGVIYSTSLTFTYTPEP

SDLKFRVNEFGALEVITDENEMENVKKATATTTWMVPTAQ (domain or fragment, human, UniProt Q96JM7 31-70, looked up) [L3MBTL3-(31-70)] was tested, and the “stoichiometry N” value (RBPJ-(53-474) [1]) was 1, the Ka (RBPJ-(53-474) [2]) was 2.27e+06 M⁻¹ and the Kd (RBPJ-(53-474) [2]) was 450 nM. It also gave a dH (RBPJ-(53-474) [2]) of -7.52 kcal/mol.
